Results reported in PMC4540320, “A Newly-Identified Polymorphism in Rhesus Macaque Complement Factor H Modulates Binding Affinity for Meningococcal FHbp” (PLoS ONE, 2015).

Assays:
[1] = target: rhesus macaque serum Factor H, sequence type HP/HP (H352 with P360, homozygous) (rhesus macaque (endogenous in serum)); assay: SPR; Biacore X100 Plus, CM5 chip with immobilised goat anti-human FH; FH (~600 RU) captured from a 1:50 serum dilution; FHbp 3.16 to 316 nM in solution, single-cycle kinetics, 1:1 binding model
[2] = target: rhesus macaque serum Factor H, sequence type HP/YS (heterozygous) (rhesus macaque (endogenous in serum)); assay: as above
[3] = target: rhesus macaque serum Factor H, sequence type HP/YP (heterozygous) (rhesus macaque (endogenous in serum)); assay: as above
[4] = target: rhesus macaque serum Factor H, sequence type YS/YP (heterozygous) (rhesus macaque (endogenous in serum)); assay: as above
[5] = target: T1, human complement Factor H (human (endogenous in serum), UniProt P08603 19-1231); assay: as above; details: one partner purified
T1 construct: also called human FH; human serum FH; source: endogenous, human serum; also purified from the same subject

[6] = target: T1, human complement Factor H; assay: SPR; as the serum capture assay, but with human FH purified from the same subject captured on immobilised goat anti-human FH; FHbp in solution, single-cycle kinetics, 1:1 binding model; details: both partners purified

T1 sequence (P08603 19-1231): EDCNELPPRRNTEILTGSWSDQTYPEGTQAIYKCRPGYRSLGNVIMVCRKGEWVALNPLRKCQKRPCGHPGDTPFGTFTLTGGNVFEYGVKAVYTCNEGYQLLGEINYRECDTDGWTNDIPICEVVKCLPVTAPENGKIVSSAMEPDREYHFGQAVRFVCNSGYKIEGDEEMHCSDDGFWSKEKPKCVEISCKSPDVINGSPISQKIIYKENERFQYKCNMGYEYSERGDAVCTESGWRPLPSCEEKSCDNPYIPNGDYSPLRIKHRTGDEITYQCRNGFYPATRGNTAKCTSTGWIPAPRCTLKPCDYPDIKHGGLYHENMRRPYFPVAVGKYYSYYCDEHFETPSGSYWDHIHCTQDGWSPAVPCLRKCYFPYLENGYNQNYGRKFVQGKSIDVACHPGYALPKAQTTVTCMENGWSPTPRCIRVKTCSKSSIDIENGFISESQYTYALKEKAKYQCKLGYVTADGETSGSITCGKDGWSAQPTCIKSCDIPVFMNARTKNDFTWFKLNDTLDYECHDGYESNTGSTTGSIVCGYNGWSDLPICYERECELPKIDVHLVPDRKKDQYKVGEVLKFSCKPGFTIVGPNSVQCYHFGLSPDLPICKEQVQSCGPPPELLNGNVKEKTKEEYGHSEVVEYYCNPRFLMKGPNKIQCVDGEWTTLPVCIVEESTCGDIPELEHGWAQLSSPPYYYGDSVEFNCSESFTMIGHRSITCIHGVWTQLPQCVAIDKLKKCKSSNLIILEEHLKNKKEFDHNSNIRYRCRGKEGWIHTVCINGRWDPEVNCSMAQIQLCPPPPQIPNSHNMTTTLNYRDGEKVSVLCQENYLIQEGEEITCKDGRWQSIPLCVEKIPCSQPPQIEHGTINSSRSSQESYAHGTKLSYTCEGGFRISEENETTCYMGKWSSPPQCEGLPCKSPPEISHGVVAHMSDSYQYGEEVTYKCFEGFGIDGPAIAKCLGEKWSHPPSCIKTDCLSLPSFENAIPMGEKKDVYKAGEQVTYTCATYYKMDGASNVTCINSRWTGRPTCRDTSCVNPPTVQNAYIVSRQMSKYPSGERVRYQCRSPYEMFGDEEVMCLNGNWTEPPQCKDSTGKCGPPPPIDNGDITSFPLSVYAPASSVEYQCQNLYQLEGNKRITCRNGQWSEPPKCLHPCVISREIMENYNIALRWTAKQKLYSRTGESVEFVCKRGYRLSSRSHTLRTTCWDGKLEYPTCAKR

Molecule	Kd [1]	kon [1]	Kd [2]	kon [2]	Kd [3]	kon [3]	Kd [4]	kon [4]	Kd [5]	kon [5]	Kd [6]	kon [6]
recombinant Factor H binding protein (FHbp) ID 1 (from UniProt Q9JXV4 20-274) (natural protein)	100 nM	180000 M⁻¹ s⁻¹	99.5 nM	190000 M⁻¹ s⁻¹	18.2 nM	180000 M⁻¹ s⁻¹	10.4 nM	180000 M⁻¹ s⁻¹	–	–	–	–
recombinant Factor H binding protein (FHbp) ID 1 (natural protein, also called meningococcal FHbp; source: recombinant, purified as described previously [14] with a second ion exchange chromatography step (HiTrap SP HP)) CSSGGGGVAADIGAGLADALTAPLDHKDKGLQSLTLDQSVRKNEKLKLAAQGAEKTYGNGDSLNTGKLKNDKVSRFDFIRQIEVDGQLITLESGEFQVYKQSHSALTAFQTEQIQDSEHSGKMVAKRQFRIGDIAGEHTSFDKLPEGGRATYRGTAFGSDDAGGKLTYTIDFAAKQGNGKIEHLKSPELNVDLAAADIKPDGKRHAVISGSVLYNQAEKGSYSLGIFGGKAQEVAGSAEVKTVNGIRHIGLAAKQ	–	–	–	–	–	–	–	–	19.8 nM	190000 M⁻¹ s⁻¹	18.2 nM	220000 M⁻¹ s⁻¹
